# Source: patent US20050214302A1, “Use of emmprin antagonists for the treatment of diseases associated with excessive angiogenesis” (priority 2004, published 2005)
# B1: recombinant EMMPRIN: recombinant protein corresponding to the extracellular domain of human EMMPRIN, produced in NSO cells (R&D Systems) (protein, UniProt P35613 138-323, looked up)
# extracellular domain: EPGTVFTTVEDLGSKILLTCSLNDSATEVTGHRWLKGGVVLKEDALPGQKTEFKVDSDDQWGEYSCVFLPEPMGTANIQLHGPPRVKAVKSSEHINEGETAMLVCKSESVPPVTDWAWYKITDSEDKALMNGSESRFFVSSSQGRSELHIENLNMEADPGQYRCNGTSSKGSDQAIITLRVRSHLA
# modifications: extracellular domain
# Columns and labels:
# [1] = tested on: angiogenesis in Matrigel plugs; assay: Matrigel plug angiogenesis assay in vivo; settings: suboptimal doses of FGF or VEGF, mice, expected
# Source text: The role of EMMPRIN in angiogenesis will be directly investigated in vivo using Matrigel plug assays. Matrigel is a solubilized basement membrane preparation extracted from the Engel-Holm-Swarm (EHS) mouse sarcoma, a tumor rich in extracellular matrix proteins. The major component is laminin, but Matrigel also contains trace amounts of fibroblast growth factor, TGF-beta, tissue plasminogen activator, and other growth factors that occur naturally in the EHS tumor. Matrigel is the basis for several types of tumor cell invasion assays and provides the necessary substrate for the study of angiogenesis. Matrigel forms a soft gel plug when injected subcutaneously into mice or rats and supports an intense vascular response when supplemented with angiogenic factors.
# Matrigel plugs containing suboptimal doses of angiogenic growth factors, such as basic fibroblast growth factor (FGF), or vascular endothelial cell growth factor (VEGF) can be implanted into mice to induce angiogenesis in vivo. Some of these plugs are supplemented with various doses of recombinant EMMPRIN.
# HMVEC-L cells = assay: Recombinant EMMPRIN stimulation of MMP-1 production by HMVEC-L cells (MMP-1 activity kit); type: cell-based, human
# Description: HMVEC-L cells were obtained from Clonetics, Walkersville, Md. (Cat# CC-2527, Lot# 8F1528). HMVEC-L cells were cultured under conditions recommended by the supplier. Briefly, cells were cultured in Endothelium Cell Growth Medium MV (EGM-2 MV, Clonetics, Cat#CC-3202) containing human epithelial growth factor (hEGF), hydrocortisone, human basic fibroblast growth factor (hFGF-B), vascular endothelial growth factor (VEGF), human insulin-like growth factor-1 (hIGF-1), ascorbic acid, gentamicin, 5% FBS, at 37° C., 5% CO2.
# Early passage cells (less than passage 3) were trypsinized and washed with RPMI-1640 once. Cells were resuspended in Dilution Medium (DM−Fibroblast Basic Medium+2% FBS) at a concentration of 5×100,000 cells/ml. 100 μl of the cell suspension containing 50,000 cells was added into each well in a 96 well cell culture plate. […]
# Quantitative detection of MMP-1 activity in the conditioned medium was carried out using Human MMP-1 Activity Kit (R&D Systems, Minneapolis, Minn.) (Cat#F1M00). […] MMP substrate added into each well was cleaved by active MMP-1 and the resulting fluorescence was determined using SpectraFluor Plus Plate Reader (TECAN, Zurich, Switzerland) (Cat# F129005, Ser# 94747) with the following parameters: excitation wavelength at 320 nm and emission wavelength at 405 nm.
# NHLF cells = assay: Recombinant EMMPRIN stimulation of MMP-1 production by NHLF cells; type: cell-based, human; settings: same treatment (20 μg/ml EMMPRIN)
molecule,measurement,setting,value
B1,Angiogenesis in Matrigel plugs supplemented with recombinant EMMPRIN,[1],increase in angiogenesis
same,Stimulation of MMP-1 production in endothelial cells (result in words),"HMVEC-L cells; 0.08-20 μg/ml EMMPRIN, 1 day and 3 days, FIG. 2",dose-dependently stimulated MMP-1 production
same,MMP-1 produced by HMVEC-L cells,HMVEC-L cells; treated with 20 μg/ml EMMPRIN,approximately 40 ng/ml
same,MMP-1 produced by NHLF cells relative to HMVEC-L,NHLF cells,only half of that amount
